Reference: patent US20170029507A1 (IMAGINAB, published 2017)

B1: IAb_Mb2c_CD8 (other)
chain: QVQLVQSGAEVKKPGATVKISCKVSGFNIKDTYIHFVQQAPGKGLEWIGRIDPANDNTLYASKFQGKATITADTSTDTAYMELSSLRSGDTAVYYCGRGYGYYVFDHWGQGTLVTVSSGSTSGGGSGGGSGGGGSSDVQITQSPSSLSASVGDRVTITCRTSRSISQYLAWYQQKPGKVPKLLIYSGSTLQSGVPSRFSGSGSGTDFTLTISSLQPEDVATYYCQQHNENPLTFGGGTKVEIKEPKSCDKTHTCPPCGGGSSGGGSGGQPREPQVYTLPPSRDELTKNQVSLTCLVKGFYPSDIAVEWESNGQPENNYKTTPPVLDSDGSFFLYSKLTVDKSRWQQGNVFSCSVMHEALHNHYTQKSLSLSPGK
notes: Tested as CHO-K1 transfection supernatant; also called variant 2c
B2: IAb_Mb2a_CD8 (other)
chain: EVQLVESGGGLVQPGGSLRLSCAASGFNIKDTYIHFVRQAPGKGLEWIGRIDPANDNTLYASKFQGKATISADTSKNTAYLQMNSLRAGDTAVYYCGRGYGYYVFDHWGQGTLVTVSSGSTSGGGSGGGSGGGGSSDVQITQSPSSLSASVGDRVTITCRTSRSISQYLAWYQQKPGKVPKLLIYSGSTLQSGVPSRFSGSGSGTDFTLTISSLQPEDVATYYCQQHNENPLTFGGGTKVEIKEPKSCDKTHTCPPCGGGSSGGGSGGQPREPQVYTLPPSRDELTKNQVSLTCLVKGFYPSDIAVEWESNGQPENNYKTTPPVLDSDGSFFLYSKLTVDKSRWQQGNVFSCSVMHEALHNHYTQKSLSLSPGK
notes: Tested as CHO-K1 transfection supernatant; also called variant 2a

Key:
[1] = target: T1, purified recombinant human CD8 protein (human, UniProt P01732 22-182, limits assumed); experiment: ELISA, plate coated with rhCD8, transfection supernatant serially diluted from 0.5 µg/ml, HRP goat anti-human IgG (Fc-specific), TMB, 405 nm
T1 construct: also called rhCD8; hCD8
T1 sequence (P01732 22-182 limits assumed): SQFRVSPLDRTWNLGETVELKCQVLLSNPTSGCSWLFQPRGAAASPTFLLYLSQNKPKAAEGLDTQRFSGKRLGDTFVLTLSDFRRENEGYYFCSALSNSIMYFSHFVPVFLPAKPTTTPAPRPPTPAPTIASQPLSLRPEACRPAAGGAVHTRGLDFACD
Method: (§1) The concentration of the variants UAb_Mb1b_CD8, and IAb_Mb1a_CD8 were normalized to […] the concentration of IAb_MB2a_CD8 (0.5 μg/ml) based on the quantitative ELISA.
(§2) 96 well plates were coated with rhCD8 antigen and incubated with supernatants obtained from the transient transfection. Binding was detected with HRP-conjugated goat anti-human (Fc-specific) IgG and TMB substrate. The absorbance measured at 405 nm. Dilutions were done in triplicate. Data is shown as mean of relative absorbance.

[2] = target: T1, purified recombinant human CD8 protein; experiment: ELISA, plate coated with rhCD8, transfection supernatant at 0.5 µg/ml and serially diluted, HRP goat anti-human IgG (Fc-specific), TMB, 405 nm
Method: as §1, §2

Row | Binder | EC50 (read off the curve) [1] [µg/mL] | EC50 (read off the curve) [2] [µg/mL]
1 | B1 | ~0.04 | –
2 | B2 | – | ~0.02
